# Laboratory results taken from IntAct's records for PubMed 20042240.
# B1: Complement factor H-related protein 4 (Homo sapiens), Q92496-1 (parent)
# chain: MLLLINVILTLWVSCANGQEVKPCDFPEIQHGGLYYKSLRRLYFPAAAGQSYSYYCDQNFVTPSGSYWDYIHCTQDGWSPTVPCLRTCSKSDVEIENGFISESSSIYILNEETQYNCKPGYATAEGNSSGSITCLQNGWSTQPICIKFCDMPVFENSRAKSNGMWFKLHDTLDYECYDGYESSYGNTTDSIVCGEDGWSHLPTCYNSSENCGPPPPISNGDTTSFPQKVYLPWSRVEYQCQSYYELQGSKYVTCSNGDWSEPPRCISMKPCEFPEIQHGHLYYENTRRPYFPVATGQSYSYYCDQNFVTPSGSYWDYIHCTQDGWLPTVPCLRTCSKSDIEIENGFISESSSIYILNKEIQYKCKPGYATADGNSSGSITCLQNGWSAQPICIKFCDMPVFENSRAKSNGMRFKLHDTLDYECYDGYEISYGNTTGSIVCGEDGWSHFPTCYNSSEKCGPPPPISNGDTTSFLLKVYVPQSRVEYQCQSYYELQGSNYVTCSNGEWSEPPRCIHPCIITEENMNKNNIQLKGKSDIKYYAKTGDTIEFMCKLGYNANTSVLSFQAVCREGIVEYPRCE
# partner: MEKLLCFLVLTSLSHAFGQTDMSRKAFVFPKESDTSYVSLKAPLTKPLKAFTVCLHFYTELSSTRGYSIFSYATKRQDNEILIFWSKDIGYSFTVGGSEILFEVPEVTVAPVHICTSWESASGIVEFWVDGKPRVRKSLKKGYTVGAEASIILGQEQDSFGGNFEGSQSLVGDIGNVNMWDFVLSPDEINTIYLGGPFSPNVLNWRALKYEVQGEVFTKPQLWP
# B2: Complement factor H (Homo sapiens), P08603 (parent)
# chain: MRLLAKIICLMLWAICVAEDCNELPPRRNTEILTGSWSDQTYPEGTQAIYKCRPGYRSLGNVIMVCRKGEWVALNPLRKCQKRPCGHPGDTPFGTFTLTGGNVFEYGVKAVYTCNEGYQLLGEINYRECDTDGWTNDIPICEVVKCLPVTAPENGKIVSSAMEPDREYHFGQAVRFVCNSGYKIEGDEEMHCSDDGFWSKEKPKCVEISCKSPDVINGSPISQKIIYKENERFQYKCNMGYEYSERGDAVCTESGWRPLPSCEEKSCDNPYIPNGDYSPLRIKHRTGDEITYQCRNGFYPATRGNTAKCTSTGWIPAPRCTLKPCDYPDIKHGGLYHENMRRPYFPVAVGKYYSYYCDEHFETPSGSYWDHIHCTQDGWSPAVPCLRKCYFPYLENGYNQNYGRKFVQGKSIDVACHPGYALPKAQTTVTCMENGWSPTPRCIRVKTCSKSSIDIENGFISESQYTYALKEKAKYQCKLGYVTADGETSGSITCGKDGWSAQPTCIKSCDIPVFMNARTKNDFTWFKLNDTLDYECHDGYESNTGSTTGSIVCGYNGWSDLPICYERECELPKIDVHLVPDRKKDQYKVGEVLKFSCKPGFTIVGPNSVQCYHFGLSPDLPICKEQVQSCGPPPELLNGNVKEKTKEEYGHSEVVEYYCNPRFLMKGPNKIQCVDGEWTTLPVCIVEESTCGDIPELEHGWAQLSSPPYYYGDSVEFNCSESFTMIGHRSITCIHGVWTQLPQCVAIDKLKKCKSSNLIILEEHLKNKKEFDHNSNIRYRCRGKEGWIHTVCINGRWDPEVNCSMAQIQLCPPPPQIPNSHNMTTTLNYRDGEKVSVLCQENYLIQEGEEITCKDGRWQSIPLCVEKIPCSQPPQIEHGTINSSRSSQESYAHGTKLSYTCEGGFRISEENETTCYMGKWSSPPQCEGLPCKSPPEISHGVVAHMSDSYQYGEEVTYKCFEGFGIDGPAIAKCLGEKWSHPPSCIKTDCLSLPSFENAIPMGEKKDVYKAGEQVTYTCATYYKMDGASNVTCINSRWTGRPTCRDTSCVNPPTVQNAYIVSRQMSKYPSGERVRYQCRSPYEMFGDEEVMCLNGNWTEPPQCKDSTGKCGPPPPIDNGDITSFPLSVYAPASSVEYQCQNLYQLEGNKRITCRNGQWSEPPKCLHPCVISREIMENYNIALRWTAKQKLYSRTGESVEFVCKRGYRLSSRSHTLRTTCWDGKLEYPTCAKR
# partner: B1 partner
# Variants of: B1
# Settings: with crp_human CRP
row,effect of a mutation on the interaction,Variant
1,decreasing interaction strength,MLLLINVILTLWVSCANGQEVKPCDFPEIQHGGLYYASLRRLYFPAAAGQSYSYYCDQNFVTPSGSYWDYIHCTQDGWSPTVPCLRTCSKSDVEIENGFISESSSIYILNEETQYNCKPGYATAEGNSSGSITCLQNGWSTQPICIKFCDMPVFENSRAKSNGMWFKLHDTLDYECYDGYESSYGNTTDSIVCGEDGWSHLPTCYNSSENCGPPPPISNGDTTSFPQKVYLPWSRVEYQCQSYYELQGSKYVTCSNGDWSEPPRCISMKPCEFPEIQHGHLYYENTRRPYFPVATGQSYSYYCDQNFVTPSGSYWDYIHCTQDGWLPTVPCLRTCSKSDIEIENGFISESSSIYILNKEIQYKCKPGYATADGNSSGSITCLQNGWSAQPICIKFCDMPVFENSRAKSNGMRFKLHDTLDYECYDGYEISYGNTTGSIVCGEDGWSHFPTCYNSSEKCGPPPPISNGDTTSFLLKVYVPQSRVEYQCQSYYELQGSNYVTCSNGEWSEPPRCIHPCIITEENMNKNNIQLKGKSDIKYYAKTGDTIEFMCKLGYNANTSVLSFQAVCREGIVEYPRCE [K37A]
2,with no effect,MLLLINVILTLWVSCANGQEVKPCDFPEIQHGGLYYKALRRLYFPAAAGQSYSYYCDQNFVTPSGSYWDYIHCTQDGWSPTVPCLRTCSKSDVEIENGFISESSSIYILNEETQYNCKPGYATAEGNSSGSITCLQNGWSTQPICIKFCDMPVFENSRAKSNGMWFKLHDTLDYECYDGYESSYGNTTDSIVCGEDGWSHLPTCYNSSENCGPPPPISNGDTTSFPQKVYLPWSRVEYQCQSYYELQGSKYVTCSNGDWSEPPRCISMKPCEFPEIQHGHLYYENTRRPYFPVATGQSYSYYCDQNFVTPSGSYWDYIHCTQDGWLPTVPCLRTCSKSDIEIENGFISESSSIYILNKEIQYKCKPGYATADGNSSGSITCLQNGWSAQPICIKFCDMPVFENSRAKSNGMRFKLHDTLDYECYDGYEISYGNTTGSIVCGEDGWSHFPTCYNSSEKCGPPPPISNGDTTSFLLKVYVPQSRVEYQCQSYYELQGSNYVTCSNGEWSEPPRCIHPCIITEENMNKNNIQLKGKSDIKYYAKTGDTIEFMCKLGYNANTSVLSFQAVCREGIVEYPRCE [S38A]
3,decreasing interaction strength,MLLLINVILTLWVSCANGQEVKPCDFPEIQHGGLAAKSLRRLYFPAAAGQSYSYYCDQNFVTPSGSYWDYIHCTQDGWSPTVPCLRTCSKSDVEIENGFISESSSIYILNEETQYNCKPGYATAEGNSSGSITCLQNGWSTQPICIKFCDMPVFENSRAKSNGMWFKLHDTLDYECYDGYESSYGNTTDSIVCGEDGWSHLPTCYNSSENCGPPPPISNGDTTSFPQKVYLPWSRVEYQCQSYYELQGSKYVTCSNGDWSEPPRCISMKPCEFPEIQHGHLYYENTRRPYFPVATGQSYSYYCDQNFVTPSGSYWDYIHCTQDGWLPTVPCLRTCSKSDIEIENGFISESSSIYILNKEIQYKCKPGYATADGNSSGSITCLQNGWSAQPICIKFCDMPVFENSRAKSNGMRFKLHDTLDYECYDGYEISYGNTTGSIVCGEDGWSHFPTCYNSSEKCGPPPPISNGDTTSFLLKVYVPQSRVEYQCQSYYELQGSNYVTCSNGEWSEPPRCIHPCIITEENMNKNNIQLKGKSDIKYYAKTGDTIEFMCKLGYNANTSVLSFQAVCREGIVEYPRCE [Y35A;Y36A]

# Variants of: B1
# Settings: with crp_human CRP
# Remark: another data set of the same source
row,effect of a mutation on the interaction,Variant
1,disrupting interaction strength,MLLLINVILTLWVSCANGQEVKPCDFPEIQHGGLYYASLRRLYFPAAAGQSYSYYCDQNFVTPSGSYWDYIHCTQDGWSPTVPCLRTCSKSDVEIENGFISESSSIYILNEETQYNCKPGYATAEGNSSGSITCLQNGWSTQPICIKFCDMPVFENSRAKSNGMWFKLHDTLDYECYDGYESSYGNTTDSIVCGEDGWSHLPTCYNSSENCGPPPPISNGDTTSFPQKVYLPWSRVEYQCQSYYELQGSKYVTCSNGDWSEPPRCISMKPCEFPEIQHGHLYYENTRRPYFPVATGQSYSYYCDQNFVTPSGSYWDYIHCTQDGWLPTVPCLRTCSKSDIEIENGFISESSSIYILNKEIQYKCKPGYATADGNSSGSITCLQNGWSAQPICIKFCDMPVFENSRAKSNGMRFKLHDTLDYECYDGYEISYGNTTGSIVCGEDGWSHFPTCYNSSEKCGPPPPISNGDTTSFLLKVYVPQSRVEYQCQSYYELQGSNYVTCSNGEWSEPPRCIHPCIITEENMNKNNIQLKGKSDIKYYAKTGDTIEFMCKLGYNANTSVLSFQAVCREGIVEYPRCE [K37A]
2,decreasing interaction strength,MLLLINVILTLWVSCANGQEVKPCDFPEIQHGGLYYKALRRLYFPAAAGQSYSYYCDQNFVTPSGSYWDYIHCTQDGWSPTVPCLRTCSKSDVEIENGFISESSSIYILNEETQYNCKPGYATAEGNSSGSITCLQNGWSTQPICIKFCDMPVFENSRAKSNGMWFKLHDTLDYECYDGYESSYGNTTDSIVCGEDGWSHLPTCYNSSENCGPPPPISNGDTTSFPQKVYLPWSRVEYQCQSYYELQGSKYVTCSNGDWSEPPRCISMKPCEFPEIQHGHLYYENTRRPYFPVATGQSYSYYCDQNFVTPSGSYWDYIHCTQDGWLPTVPCLRTCSKSDIEIENGFISESSSIYILNKEIQYKCKPGYATADGNSSGSITCLQNGWSAQPICIKFCDMPVFENSRAKSNGMRFKLHDTLDYECYDGYEISYGNTTGSIVCGEDGWSHFPTCYNSSEKCGPPPPISNGDTTSFLLKVYVPQSRVEYQCQSYYELQGSNYVTCSNGEWSEPPRCIHPCIITEENMNKNNIQLKGKSDIKYYAKTGDTIEFMCKLGYNANTSVLSFQAVCREGIVEYPRCE [S38A]
3,disrupting interaction strength,MLLLINVILTLWVSCANGQEVKPCDFPEIQHGGLAAKSLRRLYFPAAAGQSYSYYCDQNFVTPSGSYWDYIHCTQDGWSPTVPCLRTCSKSDVEIENGFISESSSIYILNEETQYNCKPGYATAEGNSSGSITCLQNGWSTQPICIKFCDMPVFENSRAKSNGMWFKLHDTLDYECYDGYESSYGNTTDSIVCGEDGWSHLPTCYNSSENCGPPPPISNGDTTSFPQKVYLPWSRVEYQCQSYYELQGSKYVTCSNGDWSEPPRCISMKPCEFPEIQHGHLYYENTRRPYFPVATGQSYSYYCDQNFVTPSGSYWDYIHCTQDGWLPTVPCLRTCSKSDIEIENGFISESSSIYILNKEIQYKCKPGYATADGNSSGSITCLQNGWSAQPICIKFCDMPVFENSRAKSNGMRFKLHDTLDYECYDGYEISYGNTTGSIVCGEDGWSHFPTCYNSSEKCGPPPPISNGDTTSFLLKVYVPQSRVEYQCQSYYELQGSNYVTCSNGEWSEPPRCIHPCIITEENMNKNNIQLKGKSDIKYYAKTGDTIEFMCKLGYNANTSVLSFQAVCREGIVEYPRCE [Y35A;Y36A]

# Variants of: B1
# Settings: with crp_human CRP
# Remark: another data set of the same source
row,effect of a mutation on the interaction,Variant
1,decreasing interaction strength,MLLLINVILTLWVSCANGQEVKPCDFPEIQHGGLYYESLRRLYFPAAAGQSYSYYCDQNFVTPSGSYWDYIHCTQDGWSPTVPCLRTCSKSDVEIENGFISESSSIYILNEETQYNCKPGYATAEGNSSGSITCLQNGWSTQPICIKFCDMPVFENSRAKSNGMWFKLHDTLDYECYDGYESSYGNTTDSIVCGEDGWSHLPTCYNSSENCGPPPPISNGDTTSFPQKVYLPWSRVEYQCQSYYELQGSKYVTCSNGDWSEPPRCISMKPCEFPEIQHGHLYYENTRRPYFPVATGQSYSYYCDQNFVTPSGSYWDYIHCTQDGWLPTVPCLRTCSKSDIEIENGFISESSSIYILNKEIQYKCKPGYATADGNSSGSITCLQNGWSAQPICIKFCDMPVFENSRAKSNGMRFKLHDTLDYECYDGYEISYGNTTGSIVCGEDGWSHFPTCYNSSEKCGPPPPISNGDTTSFLLKVYVPQSRVEYQCQSYYELQGSNYVTCSNGEWSEPPRCIHPCIITEENMNKNNIQLKGKSDIKYYAKTGDTIEFMCKLGYNANTSVLSFQAVCREGIVEYPRCE [K37E]

# Variants of: B1
# Settings: with crp_human CRP
# Remark: another data set of the same source
row,effect of a mutation on the interaction,Variant
1,increasing interaction strength,MLLLINVILTLWVSCANGQEVKPCDFPEIQHGGLYYKSLRRLYFPAAAGQSYSYYCDQNFVTPSGSYWDYIHCTQDGWSPTVPCLRTCSKSDVEIENGFISESSSIYILNEETQYNCKPGYATAEGNSSGSITCLQNGWSTQPICIKFCDMPVFENSRAKSNGMWFKLHDTLDYECYDGYESSYGNTTDSIVCGEDGWSHLPTCYNSSENCGPPPPISNGDTTSFPQKVYLPWSRVEYQCQSYYELQGSKYVTCSNGDWSEPPRCISMKPCEFPEIQHGHLYYKNTRRPYFPVATGQSYSYYCDQNFVTPSGSYWDYIHCTQDGWLPTVPCLRTCSKSDIEIENGFISESSSIYILNKEIQYKCKPGYATADGNSSGSITCLQNGWSAQPICIKFCDMPVFENSRAKSNGMRFKLHDTLDYECYDGYEISYGNTTGSIVCGEDGWSHFPTCYNSSEKCGPPPPISNGDTTSFLLKVYVPQSRVEYQCQSYYELQGSNYVTCSNGEWSEPPRCIHPCIITEENMNKNNIQLKGKSDIKYYAKTGDTIEFMCKLGYNANTSVLSFQAVCREGIVEYPRCE [E284K]

# Variants of: B2
# Settings: with crp_human CRP
row,effect of a mutation on the interaction,Variant
1,disrupting interaction strength,E338K
